Common to all, as to experiment: SPOT array
For experiment [1], the target named is T1, Yfr024 SH3 (LSB3_YEAST), P43603.
T1 chain: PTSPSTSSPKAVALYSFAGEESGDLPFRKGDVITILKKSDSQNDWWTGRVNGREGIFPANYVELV

Experiment [2] deals with T2, Yhr016c SH3 (YSC84_YEAST), P32793.
T2 chain: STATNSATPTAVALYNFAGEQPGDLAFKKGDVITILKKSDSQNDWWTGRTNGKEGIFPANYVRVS

For experiment [3], the target named is T3, Boi2 SH3 (BOI2_YEAST), P39969.
T3 chain: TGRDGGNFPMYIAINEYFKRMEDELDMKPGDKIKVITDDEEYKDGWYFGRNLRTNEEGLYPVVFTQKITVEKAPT

In experiment [4] the target is T4, Rvs167 SH3 (RV167_YEAST), P39743.
T4 chain: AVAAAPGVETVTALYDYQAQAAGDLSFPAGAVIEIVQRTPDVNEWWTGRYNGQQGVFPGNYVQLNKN

Experiment [5] concerns the target T5, Boi1 SH3 (BOI1_YEAST), P38041.
T5 chain: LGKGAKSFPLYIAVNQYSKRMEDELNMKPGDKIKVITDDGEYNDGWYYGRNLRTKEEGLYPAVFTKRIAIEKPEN

As for ENYPSPPYKIIILD [YJR068W 127-140], the normalised SPOT signal, Boehringer light units (BLU); mean over the file's lines of this peptide in experiment [1] worked out at 56.9; in experiment [2] it was 86.3; in experiment [3] it was 34.9; in experiment [4], 35.7; in experiment [5] it was 160.
The corresponding values for EVYPIEPPKVVSLK [YLR306W 88-101] are -0, 85.5, 26.4, 9 and 48.7.
Consider ENVPLYPSRRNIWE [YHR176W 81-94], for which the normalised SPOT signal, Boehringer light units (BLU); mean over the file's lines of this peptide stood at 15000 in experiment [1]; 4510 in experiment [2]; 19.2 in experiment [3]; 88.9 in experiment [4]; 764 in experiment [5].
The matching figures for EVTPEEPSKKIRTS [YML071C 500-513]: 15, 124, 20.1, 15.5 and 52.7.
On to EVTPKVPERPSRRK [YIR003W 4-17], for which the normalised SPOT signal, Boehringer light units (BLU); mean over the file's lines of this peptide in experiment [1] amounted to 59100; in experiment [2] it was 18500; in experiment [3] it was 493; in experiment [4], 2090; in experiment [5], 5160.
Regarding EVTPEEPSKSIDNK [YML071C 475-488], the normalised SPOT signal, Boehringer light units (BLU); mean over the file's lines of this peptide amounted to 0 in experiment [1]; 105 in experiment [2]; 0 in experiment [3]; 19.5 in experiment [4]; 25.1 in experiment [5].
In the case of ENFPIVPLKSVAQD [YAL051W 638-651], the normalised SPOT signal, Boehringer light units (BLU); mean over the file's lines of this peptide in experiment [1] was 377; in experiment [2], 100; in experiment [3] it was 9.5; in experiment [4] it was 125; in experiment [5], 94.
Regarding EVSPVEPKRTENER [YDR507C 687-700], the normalised SPOT signal, Boehringer light units (BLU); mean over the file's lines of this peptide in experiment [1] was found to be 72; in experiment [2], 83.5; in experiment [3], 41.7; in experiment [4], 47.2; in experiment [5] it was 80.7.
As for ESLPRTPTKGRSTQ [YPR141C 2-15], the normalised SPOT signal, Boehringer light units (BLU); mean over the file's lines of this peptide in experiment [1] worked out at 2200; in experiment [2], 211; in experiment [3], 26.1; in experiment [4], 34.8; in experiment [5], 455.
The corresponding values for ENLPPSPVRAVNPL [YPR174C 153-166] are 156, 0, 42.8, 28.7 and 85.
FSHPLSPLKSNFID [YGL177W 74-87]: the normalised SPOT signal, Boehringer light units (BLU); mean over the file's lines of this peptide in experiment [1] was 217; in experiment [2] it was 0; in experiment [3] it was 44.1; in experiment [4] it was 91.8; in experiment [5], 61.5.
The corresponding values for EYSPLVPSKMSADK [YBR044C 356-369] are 370, 177, 56.6, 202 and 103.
For ERDPNMPKRPTNAY [YDL002C 88-101], the normalised SPOT signal, Boehringer light units (BLU); mean over the file's lines of this peptide amounted to 1640 in experiment [1]; 339 in experiment [2]; 31.7 in experiment [3]; 64.8 in experiment [4]; 125 in experiment [5].
For ETVPTEPTRYNYQN [YER132C 1359-1372], the normalised SPOT signal, Boehringer light units (BLU); mean over the file's lines of this peptide in experiment [1] was determined as 24.9; in experiment [2], 53.7; in experiment [3], 55.5; in experiment [4] it was 26.9; in experiment [5], 112.
For EVIPSWPRRGKVEE [YNL022C 436-449], the normalised SPOT signal, Boehringer light units (BLU); mean over the file's lines of this peptide in experiment [1] came to 923; in experiment [2] it was 138; in experiment [3], 26; in experiment [4], 34.7; in experiment [5] it was 51.2.
EYFPISPEKKEEME [YGR237C 591-604]: the normalised SPOT signal, Boehringer light units (BLU); mean over the file's lines of this peptide came to 0 in experiment [1]; 242 in experiment [2]; 15.3 in experiment [3]; 32.5 in experiment [4]; 120 in experiment [5].
The matching figures for EYHPIKPLRSSSST [YDL180W 234-247]: 3150, 762, 29.9, 48.4 and 56.4.
Turning to ERDPNAPKKPLTVF [YDR174W 100-113], the normalised SPOT signal, Boehringer light units (BLU); mean over the file's lines of this peptide in experiment [1] amounted to 94.1; in experiment [2], 274; in experiment [3], 34.6; in experiment [4], 59.7; in experiment [5], 75.6.
The matching figures for ENKPFKPPRRVGSN [YBR073W 41-54]: 23100, 8330, 3.6, 232 and 339.

The values are drawn from paper PMC314469, “Protein Interaction Networks by Proteome Peptide Scanning” (PLoS Biology, 2004).
